Results taken from paper PMC7608914.

Molecular target: Alexa488-labeled Nuc165 (human)
Assay: fluorescence polarisation; HPF1 titrated from 16.8 μM to 0 μM into 5 nM Alexa488-labeled Nuc165; 50 mM Tris-HCl pH 8, 50 mM NaCl, 1 mM MgCl2, 0.1 mM EDTA, 0.1 mM TCEP, 0.01% NP-40; Hill model

B1: Histone PARylation Factor 1 (natural protein)
chain: MVGGGGKRRPGGEGPQCEKTTDVKKSKFCEADVSSDLRKEVENHYKLSLPEDFYHFWKFCEELDPEKPSDSLSASLGLQLVGPYDILAGKHKTKKKSTGLNFNLHWRFYYDPPEFQTIIIGDNKTQYHMGYFRDSPDEFPVYVGINEAKKNCIIVPNGDNVFAAVKLFLTKKLREITDKKKINLLKNIDEKLTEAARELGYSLEQRTVKMKQRDKKVVTKTFHGAGLVVPVDKNDVGYRELPETDADLKRICKTIVEAASDEERLKAFAPIQEMMTFVQFANDECDYGMGLELGMDLFCYGSHYFHKVAGQLLPLAYNLLKRNLFAEIIEEHLANRSQENIDQLAA
Work on B1 yielded a Kd of 1.45 µM.
